The values that follow come from patent US20110256153A1 (IMMUNOGEN, published 2011).

Test [1] has as its target T1, human CD37 (human, UniProt P11049 1-278).
T1 sequence: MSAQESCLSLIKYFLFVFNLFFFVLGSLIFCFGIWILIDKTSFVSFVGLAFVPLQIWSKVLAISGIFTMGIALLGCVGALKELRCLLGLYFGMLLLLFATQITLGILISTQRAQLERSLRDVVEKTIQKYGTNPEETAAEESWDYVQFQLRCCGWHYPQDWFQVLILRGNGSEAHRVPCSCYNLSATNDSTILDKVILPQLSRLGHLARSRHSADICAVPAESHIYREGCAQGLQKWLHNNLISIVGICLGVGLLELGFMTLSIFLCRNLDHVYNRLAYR
Description: cell-based or functional assay.

For test [2], the target named is T1, human CD37. The experiment in a line: flow cytometry titration on BJAB cells (FIG. 20B); apparent Kd. For orientation: Flow cytometry measures light scatter and fluorescence of single cells or particles in a stream.
In test [3] the target is T1, human CD37. The experiment in a line: flow cytometry titration on BJAB cells; apparent Kd. The method, then:
(§1) Binding specificity was tested by flow cytometry using purified antibodies. […] All murine antibodies were incubated for 3 h with either CD37-expressing 300-19 cells or the non-transfected 300-19 cells (1×10⁵ cells per sample) in 100 μL FACS buffer (RPMI-1640 medium supplemented with 2% normal goat serum). Then, the cells were pelleted, washed, and incubated for 1 h with 100 μL of FITC-conjugated goat anti-mouse IgG-antibody (Jackson Laboratory, 6 μg/mL in FACS buffer). The cells were pelleted again, washed with FACS buffer and resuspended in 200 μL of PBS containing 1% formaldehyde. Samples were acquired using a FACSCalibur flow cytometer with the HTS multiwell sampler or a FACS array flow cytometer and analyzed using CellQuest Pro (all from BD Biosciences, San Diego, US).
The humanized antibodies huCD37-38, huCD37-50, huCD37-51, huCD37-56 and chCD37-57 were assayed for their binding affinity to BJAB cells in comparison to their murine counterparts. Flow cytometry binding assays were carried out using secondary FITC-conjugated goat-anti-murine and -anti-human antibodies, analyzed as described in Example 2 and dose-response curves were generated by non-linear regression for each antibody. The value for the apparent dissociation constant (Kd) of each antibody was calculated using GraphPad Prism v4 (GraphPad software, San Diego, Calif.).

Test [4] addresses T2, macaque CD37 (macaque, UniProt P11049 1-277 (human entry)).
T2 construct: Expressed on 300-19 cells transfected with pSRa-CD37mac (300-19/CD37mac cells); also called macaca CD37; macaque derived CD37 antigen
T2 chain: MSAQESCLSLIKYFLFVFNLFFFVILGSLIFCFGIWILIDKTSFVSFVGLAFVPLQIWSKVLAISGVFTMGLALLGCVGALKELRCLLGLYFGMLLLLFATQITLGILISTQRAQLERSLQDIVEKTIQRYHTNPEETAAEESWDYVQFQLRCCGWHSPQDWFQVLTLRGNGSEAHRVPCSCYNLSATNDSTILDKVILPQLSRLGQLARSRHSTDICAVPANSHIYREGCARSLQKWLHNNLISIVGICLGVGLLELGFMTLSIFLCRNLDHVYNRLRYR
Description: flow cytometry titration on 300-19/CD37mac cells; apparent Kd. The protocol: as §1
Flow cytometry binding assays were carried out using secondary FITC-conjugated goat-anti-human antibodies, analyzed as described in Example 2 and dose-response curves were generated by non-linear regression for each antibody. The value for the apparent dissociation constant (Kd) of each antibody was calculated using GraphPad Prism v4 (GraphPad software, San Diego, Calif.).

In test [5] the target is T1, human CD37. Description: flow cytometry titration on BJAB cells (FIG. 20A); apparent Kd.
The target of test [6] is T2, macaque CD37. The experiment in a line: flow cytometry, 300-19/CD37mac cells. The protocol:
as §1
The murine antibodies muCD37-3, muCD37-12, muCD37-38, […], muCD37-51, muCD37-56 and muCD37-57 were assayed for their ability to bind to 300-19/CD37mac cells expressing macaque CD37. Flow cytometry binding assays were carried out using secondary FITC-conjugated goat-anti-murine or goat-anti-human antibodies, analyzed as described in Example 2. Binding was compared to the previously described anti-CD37 antibody WR17 and the anti-CD37 SMIP TRU-016. […] In contrast, muCD37-3, muCD37-12, the previously described anti-CD37 antibody WR17 and the anti-CD37 SMIP TRU-016 are unable to bind the macaque derived CD37 antigen.

The target in test [7] is T1, human CD37. The experiment in a line: flow cytometry titration; apparent Kd; cells not named.
Test [8] has as its target T1, human CD37. Description: flow cytometry titration on Ramos cells; apparent Kd. The protocol: as §1
The chimeric antibodies chCD37-3 and chCD37-12 were assayed for their binding affinity to Ramos cells in comparison to their murine counterparts. Flow cytometry binding assays using Ramos cells and muCD37-3, chCD37-3, muCD37-12 and chCD37-12 antibodies were carried out and analyzed as described in Example 2 using secondary FITC-conjugated goat-anti-murine and -anti-human antibodies. FIG. 9A depicts the dose-response curves generated by non-linear regression for each antibody. The value for the apparent dissociation constant (Kd) of each antibody was calculated using GraphPad Prism v4 (GraphPad software, San Diego, Calif.).

Test [9] addresses T1, human CD37. The experiment in a line: competition flow cytometry on BJAB cells; competitor PE-labeled muCD37-3 (1 nM). The protocol:
Flow cytometry binding assays using BJAB cells and a competitive binding format were used to evaluate binding affinity of chimeric and humanized versions of CD37-3. BJAB cells were incubated with a 1 nM concentration of PE-labeled muCD37-3 antibody and competition was measured by adding varying amounts of muCD37-3, chCD37-3, huCD37-3v1.0 or huCD37-3v1.01. The samples were incubated for 3 hrs at 4° C. Then, the cells were pelleted, washed with FACS buffer and resuspended in 200 μL of PBS containing 1% formaldehyde. Samples were acquired using a FACSCalibur flow cytometer with the HTS multiwell sampler and analyzed using CellQuest Pro (all from BD Biosciences, San Diego, US). The resulting mean PE fluorescence was plotted against the amount of competing antibody used in a semi-log plot. FIG. 9B depicts the dose-response curves generated by non-linear regression for each antibody. The value for the apparent dissociation constant (Kd) of each antibody was calculated using GraphPad Prism v4 (GraphPad software, San Diego, Calif.).

B1: huCD37-38-SMCC-DM1 (antibody, human IgG1, kappa, V domains shown)
VH: QVQLQESGPGLVKPSQSLSLTCTVSGYSITSGFGWHWIRQFPGKGLEWMAYILYSGGTDYNPSLKSRISITRDTSKNQFFLRLSSVTAADTATYYCARGYYGYGAWFVYWGQGTLVTVSS
VL: DIVLTQSPASMSASPGERVTMTCSASSSVTYMHWYQQKPGTSPKRWIYDTSKLASGVPARFSGSGSGTSYSLTISSMEAEDAATYYCQQWISNPPTFGGGTKLEIKR
modifications: DM1 attached through SMCC linker; attachment residues and load not stated
notes: SMCC-DM1 conjugate of huCD37-38
As for B1, in the test with human CD37 [1], the “EC50 of in vitro cytotoxicity, WST-8 assay, Daudi cells” value is 0.098 nM and the “EC50 of in vitro cytotoxicity, WST-8 assay, Granta-519 cells” value was 0.074 nM. Also, the Kd with human CD37 [2] came out at 1.2 nM.

B2: huCD37-38 (antibody, human IgG1, kappa, V domains shown)
VH: QVQLQESGPGLVKPSQSLSLTCTVSGYSITSGFGWHWIRQFPGKGLEWMAYILYSGGTDYNPSLKSRISITRDTSKNQFFLRLSSVTAADTATYYCARGYYGYGAWFVYWGQGTLVTVSS
VL: DIVLTQSPASMSASPGERVTMTCSASSSVTYMHWYQQKPGTSPKRWIYDTSKLASGVPARFSGSGSGTSYSLTISSMEAEDAATYYCQQWISNPPTFGGGTKLEIKR
notes: Humanized antibody
On to B2, for which the Kd with human CD37 [3] was 0.3 nM; with macaque CD37 [4] it was 1.1 nM; with human CD37 [2], 1.04 nM.

B3: huCD37-3-SPP-DM1 (antibody, human IgG1, kappa, V domains shown)
VH: QVQVQESGPGLVAPSQTLSITCTVSGFSLTTSGVSWVRQPPGKGLEWLGVIWGDGSTNYHPSLKSRLSIKKDHSKSQVFLKLNSLTAADTATYYCAKGGYSLAHWGQGTLVTVSS
VL: DIQMTQSPSSLSVSVGERVTITCRASENIRSNLAWYQQKPGKSPKLLVNVATNLADGVPSRFSGSGSGTDYSLKINSLQPEDFGTYYCQHYWGTTWTFGQGTKLEIKR
modifications: DM1 attached through SPP linker; attachment residues not stated; 3.5-4 DM1 per antibody
notes: heavy chain version as for huCD37-3, see its note
B3: in the test with human CD37 [1], the “EC50 of in vitro cytotoxicity, BJAB cells” value worked out at 0.11 nM; the “EC50 of in vitro cytotoxicity, Daudi cells” value amounted to 0.12 nM; the “EC50 of in vitro cytotoxicity, Granta-519 cells” value came out at 0.13 nM. Also, in the test with human CD37 [5], the Kd came to 0.56 nM.

B4: huCD37-3 (antibody, human IgG1, kappa, V domains shown)
VH: QVQVQESGPGLVAPSQTLSITCTVSGFSLTTSGVSWVRQPPGKGLEWLGVIWGDGSTNYHPSLKSRLSIKKDHSKSQVFLKLNSLTAADTATYYCAKGGYSLAHWGQGTLVTVSS
VL: DIQMTQSPSSLSVSVGERVTITCRASENIRSNLAWYQQKPGKSPKLLVNVATNLADGVPSRFSGSGSGTDYSLKINSLQPEDFGTYYCQHYWGTTWTFGQGTKLEIKR
notes: also called huCD37-3 Ab; huCD37-3 antibody
Take B4: the binding result with macaque CD37 [6] is on record as “no binding”. In addition, the values for the Kd with human CD37 [3], with human CD37 [7] and in the test with human CD37 [5] were 0.2 nM, 0.28 nM and 0.26 nM, respectively.

B5: huCD37-3-sulfo-mal-DM4 (antibody, human IgG1, kappa, V domains shown)
VH: QVQVQESGPGLVAPSQTLSITCTVSGFSLTTSGVSWVRQPPGKGLEWLGVIWGDGSTNYHPSLKSRLSIKKDHSKSQVFLKLNSLTAADTATYYCAKGGYSLAHWGQGTLVTVSS
VL: DIQMTQSPSSLSVSVGERVTITCRASENIRSNLAWYQQKPGKSPKLLVNVATNLADGVPSRFSGSGSGTDYSLKINSLQPEDFGTYYCQHYWGTTWTFGQGTKLEIKR
modifications: DM4 attached through 3-sulfo-mal linker; attachment residues not stated; 3.5-4 DM4 per antibody
notes: as for B3
On to B5, for which, in the test with human CD37 [1], the “EC50 of in vitro cytotoxicity, BJAB cells” value was found to be 0.11 nM; the “EC50 of in vitro cytotoxicity, Daudi cells” value was determined as 0.14 nM; the “EC50 of in vitro cytotoxicity, Granta-519 cells” value worked out at 0.088 nM. Besides, the Kd in the test with human CD37 [5] was 0.89 nM.

B6: chCD37-3 (antibody, human IgG1, kappa)
heavy: not shown
light: DIQMTQSPASLSVSVGETVTITCRASENIRSNLAWYQQKQGKSPQLLVNVATNLADGVPSRFSGSGSGTQYSLKINSLQSEDFGTYYCQHYWGTTWTFGGGTKLEIKRTVAAPSVFIFPPSDEQLKSGTASVVCLLNNFYPREAKVQWKVDNALQSGNSQESVTEQDSKDSTYSLSSTLTLSKADYEKHKVYACEVTHQGLSSPVTKSFNRGEC
notes: Chimeric antibody, murine variable regions with human constant regions
In general, EC50 refers to the concentration giving half of the maximal effect. As for B6, in the test with human CD37 [8], the Kd worked out at 0.8 nM. In addition, the 50% effective concentration (EC50) with human CD37 [9] is 0.7 nM.
